Measurements as given in IntAct's records for PubMed 26258305.

Key:
tif6a_arath TIFY6A = tif6a_arath TIFY6A (UniProt Q58G47)
tif5a_arath TIFY5A = tif5a_arath TIFY5A (UniProt Q8LBM2)
tif9_arath TIFY9 = tif9_arath TIFY9 (UniProt Q93ZM9)
tif3b_arath TIFY3B = tif3b_arath TIFY3B (UniProt Q9C5K8)
tif6b_arath TIFY6B = tif6b_arath TIFY6B (UniProt Q9LVI4)
tif7_arath TIFY7 = tif7_arath TIFY7 (UniProt Q8W4J8)
tif3a_arath TIFY3A = tif3a_arath TIFY3A (UniProt Q9M246)
ti10b_arath TIFY10B = ti10b_arath TIFY10B (UniProt Q9S7M2)
ti10b_arath TIFY10B, sequence (Q9S7M2 whole entry): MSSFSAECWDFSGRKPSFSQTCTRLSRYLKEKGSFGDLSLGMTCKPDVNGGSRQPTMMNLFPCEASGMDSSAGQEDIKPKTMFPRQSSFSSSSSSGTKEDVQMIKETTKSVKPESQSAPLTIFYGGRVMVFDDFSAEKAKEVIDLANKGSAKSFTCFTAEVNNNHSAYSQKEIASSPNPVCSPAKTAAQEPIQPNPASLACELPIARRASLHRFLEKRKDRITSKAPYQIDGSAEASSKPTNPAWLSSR

ti11b_arath TIFY11B = ti11b_arath TIFY11B (UniProt Q9C9E3)
ti11a_arath TIFY11A = ti11a_arath TIFY11A (UniProt Q9LDU5)
ti10a_arath TIFY10A = ti10a_arath TIFY10A (UniProt Q9LMA8)

tif9_arath TIFY9, sequence (Q93ZM9 whole entry): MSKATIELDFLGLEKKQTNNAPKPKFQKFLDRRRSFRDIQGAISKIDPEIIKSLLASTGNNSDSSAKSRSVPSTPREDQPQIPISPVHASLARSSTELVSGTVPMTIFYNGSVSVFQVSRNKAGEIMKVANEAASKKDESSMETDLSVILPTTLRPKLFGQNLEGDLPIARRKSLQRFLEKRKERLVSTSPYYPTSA
Transcription factor MYC3 (Arabidopsis thaliana (Mouse-ear cress)), Q9FIP9 L152A;M155A, sequence (Q9FIP9 whole entry L152A/M155A): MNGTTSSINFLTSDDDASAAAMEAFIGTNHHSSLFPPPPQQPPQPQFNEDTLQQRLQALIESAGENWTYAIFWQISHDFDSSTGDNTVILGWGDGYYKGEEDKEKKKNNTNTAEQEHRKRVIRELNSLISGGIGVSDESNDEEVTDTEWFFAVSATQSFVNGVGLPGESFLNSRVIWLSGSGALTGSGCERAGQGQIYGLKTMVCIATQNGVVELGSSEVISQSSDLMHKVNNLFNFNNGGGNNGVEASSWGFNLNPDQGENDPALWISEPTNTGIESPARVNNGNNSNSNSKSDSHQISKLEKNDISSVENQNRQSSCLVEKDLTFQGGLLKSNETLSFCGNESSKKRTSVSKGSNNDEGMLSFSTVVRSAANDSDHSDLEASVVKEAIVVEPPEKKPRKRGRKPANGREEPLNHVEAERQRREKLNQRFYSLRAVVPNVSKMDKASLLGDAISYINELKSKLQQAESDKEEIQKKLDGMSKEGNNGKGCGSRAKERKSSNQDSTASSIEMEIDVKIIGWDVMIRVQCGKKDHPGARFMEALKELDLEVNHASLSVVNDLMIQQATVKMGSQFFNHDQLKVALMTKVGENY
tif3b_arath TIFY3B, sequence (Q9C5K8 whole entry): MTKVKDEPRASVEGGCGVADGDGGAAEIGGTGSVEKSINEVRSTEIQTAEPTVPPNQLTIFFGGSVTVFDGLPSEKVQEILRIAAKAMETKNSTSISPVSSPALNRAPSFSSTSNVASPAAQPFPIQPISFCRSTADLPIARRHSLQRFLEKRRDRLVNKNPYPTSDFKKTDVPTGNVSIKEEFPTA
tif3a_arath TIFY3A, sequence (Q9M246 whole entry): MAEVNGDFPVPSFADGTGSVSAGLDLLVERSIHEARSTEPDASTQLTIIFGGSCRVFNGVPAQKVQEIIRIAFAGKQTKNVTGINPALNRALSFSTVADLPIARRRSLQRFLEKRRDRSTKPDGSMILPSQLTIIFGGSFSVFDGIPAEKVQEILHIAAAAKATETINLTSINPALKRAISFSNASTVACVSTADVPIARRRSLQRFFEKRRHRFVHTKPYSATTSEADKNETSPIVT
Transcription factor MYC3 (Arabidopsis thaliana (Mouse-ear cress)), Q9FIP9 F151A;M155A, sequence (Q9FIP9 whole entry F151A/M155A): as the sequence (Q9FIP9 whole entry L152A/M155A) above, with F151A, A152L counted along it
Transcription factor MYC3 (Arabidopsis thaliana (Mouse-ear cress)), Q9FIP9 D94N, sequence (Q9FIP9 whole entry D94N): as the sequence (Q9FIP9 whole entry L152A/M155A) above, with D94N, A152L, A155M counted along it
Transcription factor MYC3 (Arabidopsis thaliana (Mouse-ear cress)), Q9FIP9 F151A;L152A, sequence (Q9FIP9 whole entry F151A/L152A): as the sequence (Q9FIP9 whole entry L152A/M155A) above, with F151A, A155M counted along it
tif7_arath TIFY7, sequence (Q8W4J8 whole entry): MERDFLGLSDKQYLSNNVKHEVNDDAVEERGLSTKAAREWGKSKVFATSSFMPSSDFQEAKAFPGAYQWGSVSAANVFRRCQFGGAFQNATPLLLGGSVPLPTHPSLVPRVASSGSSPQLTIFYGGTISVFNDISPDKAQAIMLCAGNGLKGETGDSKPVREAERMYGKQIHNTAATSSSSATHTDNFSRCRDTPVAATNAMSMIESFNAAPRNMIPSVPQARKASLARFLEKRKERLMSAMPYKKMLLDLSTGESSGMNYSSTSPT
Transcription factor MYC3 (Arabidopsis thaliana (Mouse-ear cress)), Q9FIP9 F151A;L152A;M155A, sequence (Q9FIP9 whole entry F151A/L152A/M155A): as the sequence (Q9FIP9 whole entry L152A/M155A) above, with F151A counted along it
Transcription factor MYC3 (Arabidopsis thaliana (Mouse-ear cress)), Q9FIP9 W92A;D94A;Y97A, sequence (Q9FIP9 whole entry W92A/D94A/Y97A): as the sequence (Q9FIP9 whole entry L152A/M155A) above, with W92A, D94A, Y97A, A152L, A155M counted along it
tif5a_arath TIFY5A, sequence (Q8LBM2 whole entry): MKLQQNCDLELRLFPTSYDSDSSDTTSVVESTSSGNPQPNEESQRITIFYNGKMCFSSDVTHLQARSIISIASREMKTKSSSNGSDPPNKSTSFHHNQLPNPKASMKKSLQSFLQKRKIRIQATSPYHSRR

| effect of a mutation on the interaction (tif6a_arath TIFY6A) | effect of a mutation on the interaction (tif5a_arath TIFY5A) | effect of a mutation on the interaction (tif9_arath TIFY9) | effect of a mutation on the interaction (tif3b_arath TIFY3B) | effect of a mutation on the interaction (tif6b_arath TIFY6B) | effect of a mutation on the interaction (tif7_arath TIFY7) | effect of a mutation on the interaction (tif3a_arath TIFY3A) | effect of a mutation on the interaction (ti10b_arath TIFY10B) | effect of a mutation on the interaction (ti11b_arath TIFY11B) | effect of a mutation on the interaction (ti11a_arath TIFY11A) | effect of a mutation on the interaction (ti10a_arath TIFY10A) | Substance |
| --- | --- | --- | --- | --- | --- | --- | --- | --- | --- | --- | --- |
| disrupting interaction strength |  |  |  |  |  |  |  |  |  |  | Transcription factor MYC3 (Arabidopsis thaliana (Mouse-ear cress)), Q9FIP9 D94A |
| disrupting interaction strength |  | decreasing interaction strength | disrupting interaction strength | disrupting interaction strength | disrupting interaction strength | decreasing interaction strength | decreasing interaction strength | decreasing interaction strength | disrupting interaction strength | decreasing interaction strength | Transcription factor MYC3 (Arabidopsis thaliana (Mouse-ear cress)), Q9FIP9 L152A |
| disrupting interaction strength |  |  |  |  |  |  |  |  |  |  | Transcription factor MYC3 (Arabidopsis thaliana (Mouse-ear cress)), Q9FIP9 W92A;D94A |
| decreasing interaction strength |  |  |  | decreasing interaction strength | decreasing interaction strength |  |  | decreasing interaction strength | decreasing interaction strength |  | Transcription factor MYC3 (Arabidopsis thaliana (Mouse-ear cress)), Q9FIP9 D94A;Y97A |
| disrupting interaction strength | decreasing interaction strength | decreasing interaction strength | disrupting interaction strength | disrupting interaction strength | decreasing interaction strength | decreasing interaction strength | decreasing interaction strength | decreasing interaction strength | disrupting interaction strength | decreasing interaction strength | Transcription factor MYC3 (Arabidopsis thaliana (Mouse-ear cress)), Q9FIP9 F151A |
| disrupting interaction strength |  |  |  |  |  |  |  |  |  |  | Transcription factor MYC3 (Arabidopsis thaliana (Mouse-ear cress)), Q9FIP9 W92A |
| disrupting interaction strength |  |  |  | disrupting interaction strength | disrupting interaction strength |  |  |  |  |  | Transcription factor MYC3 (Arabidopsis thaliana (Mouse-ear cress)), Q9FIP9 D94N |
| disrupting interaction strength | disrupting interaction strength | disrupting interaction strength | disrupting interaction strength | disrupting interaction strength | disrupting interaction strength | disrupting interaction strength | disrupting interaction strength | disrupting interaction strength | disrupting interaction strength | disrupting interaction strength | Transcription factor MYC3 (Arabidopsis thaliana (Mouse-ear cress)), Q9FIP9 F151A;L152A |
| disrupting interaction strength | disrupting interaction strength | decreasing interaction strength | disrupting interaction strength | disrupting interaction strength | disrupting interaction strength | disrupting interaction strength | disrupting interaction strength | decreasing interaction strength | disrupting interaction strength | decreasing interaction strength | Transcription factor MYC3 (Arabidopsis thaliana (Mouse-ear cress)), Q9FIP9 F151A;M155A |

The remaining lines, values behind:

| Substance | effect of a mutation on the interaction (tif6a_arath TIFY6A) | effect of a mutation on the interaction (tif5a_arath TIFY5A) | effect of a mutation on the interaction (tif9_arath TIFY9) | effect of a mutation on the interaction (tif3b_arath TIFY3B) | effect of a mutation on the interaction (tif6b_arath TIFY6B) | effect of a mutation on the interaction (tif7_arath TIFY7) | effect of a mutation on the interaction (tif3a_arath TIFY3A) | effect of a mutation on the interaction (ti10b_arath TIFY10B) | effect of a mutation on the interaction (ti11b_arath TIFY11B) | effect of a mutation on the interaction (ti11a_arath TIFY11A) | effect of a mutation on the interaction (ti10a_arath TIFY10A) |
| --- | --- | --- | --- | --- | --- | --- | --- | --- | --- | --- | --- |
| Transcription factor MYC3 (Arabidopsis thaliana (Mouse-ear cress)), Q9FIP9 W92A;Y97A | disrupting interaction strength | decreasing interaction strength | decreasing interaction strength | disrupting interaction strength | disrupting interaction strength | disrupting interaction strength | decreasing interaction strength | disrupting interaction strength | disrupting interaction strength | disrupting interaction strength | decreasing interaction strength |
| Transcription factor MYC3 (Arabidopsis thaliana (Mouse-ear cress)), Q9FIP9 Y97A | disrupting interaction strength |  |  |  |  |  |  |  |  |  |  |
| Transcription factor MYC3 (Arabidopsis thaliana (Mouse-ear cress)), Q9FIP9 W92A;D94A;Y97A | disrupting interaction strength | disrupting interaction strength | disrupting interaction strength | disrupting interaction strength | disrupting interaction strength | disrupting interaction strength | disrupting interaction strength | disrupting interaction strength | disrupting interaction strength | disrupting interaction strength | disrupting interaction strength |
| Transcription factor MYC3 (Arabidopsis thaliana (Mouse-ear cress)), Q9FIP9 M155A | disrupting interaction strength |  |  | disrupting interaction strength | disrupting interaction strength | disrupting interaction strength |  |  | decreasing interaction strength | decreasing interaction strength |  |
| Transcription factor MYC3 (Arabidopsis thaliana (Mouse-ear cress)), Q9FIP9 F151A;L152A;M155A | disrupting interaction strength | disrupting interaction strength | disrupting interaction strength | disrupting interaction strength | disrupting interaction strength | disrupting interaction strength | disrupting interaction strength | disrupting interaction strength | disrupting interaction strength | disrupting interaction strength | disrupting interaction strength |
| Transcription factor MYC3 (Arabidopsis thaliana (Mouse-ear cress)), Q9FIP9 L152A;M155A | disrupting interaction strength | disrupting interaction strength | disrupting interaction strength | disrupting interaction strength | disrupting interaction strength | disrupting interaction strength | disrupting interaction strength | disrupting interaction strength | disrupting interaction strength | disrupting interaction strength | disrupting interaction strength |
